Data on 5 molecules can be found in PMC5993284, “Peptide inhibitors of the anaphase promoting-complex that cause sensitivity to microtubule poison” (PLoS ONE, 2018).

One experiment addresses T1, APC/C^Cdc20 (Saccharomyces cerevisiae, UniProt P16522+P53886).
T1 construct: constructed within full-length Cdc20 by site-directed mutagenesis for analysis in vitro in the APC/C^Cdc20 assay; The APC/C was purified for enzyme assays from 1 mL of TAP-tagged Cdc16 yeast extract (SCSY51); made in house; host or cells: Cdc20: in vitro transcription/translation in rabbit reticulocyte lysate, used unpurified; APC/C: S. cerevisiae strain SCSY51 (Cdc16-TAP) extract, captured on IgG magnetic beads
Description: biochemical. It counts as biochemical. To be noted: 220 μM peptide; 35S-Pds1 substrate; time course 0-60 minutes; vs buffer only; n = 3. Here is the method: Full-length, radio-labeled protein purifications were preformed as previously described. ^35S-Pds1 was prepared in a 500 μL IVT/T (In Vitro Transcription/Translation) reaction (Promega, USA), which contained 400 μL rabbit reticulocyte lysate, 20 μL of L-^35S-methionine (PerkinElmer, USA), 10 μg of plasmid DNA, and the remaining volume as nuclease-free ddH2O as recommended by the manufacturer. The reaction mixture was incubated for 2 hours at room temperature and gently mixed every 30 minutes. The reaction was added to pre-equilibrated IgG Sepharose beads (GE Healthcare, USA) in Bio-spin disposable chromatography columns (Bio-Rad, USA) for binding for 2 hours at room temperature. To ensure efficient binding, the beads were re-suspended several times every 30 minutes. After binding, the beads were washed with 5 mL wash buffer, containing 200 mM 4-(2-hydroxyethyl)-1-piperazineethanesulfonic acid (HEPES) at pH 8.0, 150 mM NaCl, 10% (v/v) glycerol, and 1 mM dithiothreitol (DTT). The ^35S-Pds1 was cleaved from the beads using TEV (Tobacco Etch Virus) protease in 1x TEV buffer (Invitrogen, USA) for 2 hours at room temperature, and the mixture was re-suspended several times every 30 minutes to promote efficient cleavage. The elution was collected and concentrated by employing an Amicon Ultra filter column (Millipore, Ireland). The concentrated ^35S-Pds1 was collected in a new tube, and stored at -20 °C.
The production of Cdc20 or Cdh1 was prepared by IVT/T reactions, where 16 μL of rabbit reticulocyte lysate, 20 μM L-methionine, 0.4 μg of plasmid DNA, and a volume of nuclease-free ddH2O for a total volume of 20 μL. This freshly synthesized Cdc20 or Cdh1 protein was used directly in all APC/C assays after a 1-hour synthesis reaction at room temperature. The APC/C was purified for enzyme assays from 1 mL of TAP-tagged Cdc16 yeast extract (SCSY51) where extract was mixed with 50 μL 50:50 slurry magnetic beads (Invitrogen, Norway) for 2 hours at 4 °C. After incubation, the beads were washed with 3 mL APC/C wash buffer (200 mM of HEPES, 150 mM of NaCl and 10% (v/v) of glycerol). APC/C bound to IgG magnetic beads was used directly in the enzyme assays.
APC/C assays were performed by adding the reaction contents in following order: 4.3 μL of QAH buffer, 20 μL of rabbit reticulocyte lysate containing Cdc20 or Cdh1 with or without an additional volume of recombinant checkpoint protein(s) or inhibitor peptides, 2.4 μL ubiquitin aldehyde (Boston Biochem, USA), APC/C, 16 μL pre-charged E1/E2/ATP/ubiquitin mix, and 13.3 μL of ^35S-Pds1 with QAH buffer (20 mM HEPES at pH 8.0, 100 mM NaCl, and 1 mM MgCl2). The E1/E2/ATP/ubiquitin mix were pre-charged by mixing 1 μL of E1 (Boston Biochem, USA), 1 μL of E2 (Boston Biochem, USA), 14.4 μL of ATP, 14.4 μL of […] (Boston Biochem, USA), and 17.2 μL of QAH buffer and incubated for 15 minutes at room temperature. Approximately 15 μL of samples were taken out at each time point, and the reaction was stopped by the addition of 2x protein sample buffer (125 mM Tris-HCl pH 6.8, 4% SDS, 20% glycerol, and 0.002% bromophenol blue, with 10% (final v/v) 2-mercaptoethanol added in fresh directly before use).
For inhibitor titration and time-course experiments, recombinant Bub3, Mad2, Mad3, and the Mad3-Bub3 complex were expressed and purified as previously described. […] For inhibition of APC/C the co-factor Cdc20 or Cdh1 was made fresh by IVT/T, and pure recombinant checkpoint proteins or inhibitor peptides were added to the IVT/T mixture and incubated for an additional hour at room temperature. In titrations, a dilution series of the checkpoint protein(s) were made before incubation with the Cdc20 co-factor. SDS-PAGE was performed using stand protocols (BioRad, USA).

For the next experiment, the system named is APC/C. Description: Biotinylated peptide pull-down of purified APC/C, Western blot. It counts as binding, Saccharomyces cerevisiae. To be noted: 20 μM biotinylated peptide, purified yeast APC/C, 1 h at 4 °C, streptavidin/Avidin beads, n = 3. How it is done: For APC/C purification, the APC/C which contain Cdc16-TAP-tag was isolated from 2 mL arrested yeast lysate by 120 μL IgG sepharose 6 Fast Flow beads (GE Healthcare Life Sciences) and incubate for 2 h at 4 °C on a rotating wheel. Beads were collected washed with 5 mL of APC/C wash buffer (200 mM Hepes pH8.0, 150 mM NaCl, 10% glycerol). Beads were resuspended in 150 μL of APC/C wash buffer contain 17.6 units of AcTEV protease (Invitrogen, Carlsbad, CA) at 4°C for 3 h with pipetting every 20 minutes. The purified APC/C was collected in the flow-through.
For APC/C binding assays, 20 μM biotinylated peptides or 20 μM peptides only as a negative control were incubated with purified APC/C and 100 μL APC/C wash buffer which contains phosphatase inhibitors (200 mM Hepes pH 8.0, 150 mM NaCl, 10% glycerol, 10 mM NaF, 1 mM NaVO4, 5 mM Na-pyrophosphate, 10 mM 2-glycerol phosphate) for 1 h at 4 °C. The mixtures were applied to 120 μL streptavidin beads (Dynabeads MyOne Streptavidin T1, Invitrogen) for 30 min at 4 °C with gentle pipetting every 10 min. Beads were washed with 1 mL of PBST buffer (Phosphate buffer saline and 0.1% Tween 20) three times SDS-PAGE protein sample was added directly. For APC/C binding competition experiments, the biotinylated peptide and 10-fold excess non-biotinylated peptides were added to purified APC/C at same time.
Free D-biotin in 10% DMSO was used for the control binding assays. For pre-coating APC/C with biotin, a modified APC/C purification was performed. 2 mL yeast lysate was incubated with 120 μL IgG Sepharose beads and additional 20.4 μM free biotin or non-biotin solvent as a positive control was added and samples were incubated for 2 h at 4 °C on a rotating wheel. Purified pre-coated APC/C was then removed from the IgG Sepharose following the standard purification procedure. 20 μM biotinylated peptides or 20 μM peptides as a negative control were incubated with pre-coated APC/C and 100 μL APC/C wash buffer which contain phosphatase inhibitors for 1 h at 4 °C. In addition, 20 μM biotinylated peptide was added and incubated with pre-coated APC/C in a non-biotin containing solvent as positive control. Pre-coated APC/C binding procedures were same as above. For pre-coating streptavidin beads with biotin, streptavidin beads were washed in the presence of 10.2 nmol/mL D-biotin in PBST buffer or non-biotin solvent as a positive control before use. Pre-coated streptavidin beads were incubated with purified APC/C-peptide complexes with an extra […] biotin for 30 minutes with gentle pipetting every 10 min at 4 °C.
Proteins were separated in SDS-PAGE gels and then were transferred to PVDF membrane. Blocking was performed by incubating samples in 20 mL PBST with 5% milk at 4 °C. Rabbit anti-tap (Thermo, CAB1001) was used as primary antibodies at a 1:1000 dilution and incubated for 2 hours at RT. Anti-rabbit HRP (Jackson, USA) was then used as secondary antibody at 1:5000 dilution and incubate for 1 hr at RT. Chemiluminescence signals were detected using an ImageQuant LAS 4000 (GE Healthcare Bio-Sciences, USA). For cell cycle timing Western blots anti-MYC and anti-Actin antibodies were employed (ABCAM, UK).

Entries after “also recorded” stand apart in the source; their conditions may differ. Ends that are not written are not given here. * marks the point of attachment. Biotin = O=C1N[C@H]2[C@H](CS[C@H]2CCCCC(=O)*)N1

For “SQ19: C-terminal 19 amino acids, SQ19 (Cdc20 213–232) peptide (SSLRQKSYIMKKRTHYSYQQ; UniProt P26309 213-232, looked up, fragment)”, the “inhibition of APC/C^Cdc20 activity (in words)” value with APC/C^Cdc20 was “displayed a low level of inhibitory activity”. For the same molecule, the “binding to APC/C (in words)” value in the experiment with APC/C is “displayed the ability to bind APC/C similar to the control peptide DQ36”. The matching figures for “DK27: defined Mad2-binding motif peptide DK27 (Cdc20 197–223) (Biotin-DMNKRILQYMPEPPKCSSLRQKSYIMK)”: “displayed a diminished ability to inhibit APC/C^Cdc20 although a significant difference with the buffer only control was still observed” and “retained the ability to bind with the APC/C; also recorded: displayed the ability to bind APC/C similar to the control peptide DQ36”. Turning to “PS46: N-terminal 46 amino acid peptide called PS46 (Cdc20 167–213) (LPPPNASPISHLRAQTKIVFKQNVAEACGLDMNKRILQYMPEPPKCS; UniProt P26309 167-213, looked up, fragment)”, the “inhibition of APC/C^Cdc20 activity (in words)” value in the experiment with APC/C^Cdc20 was “observed to inhibit APC/C^Cdc20”. The “binding to APC/C (in words)” value in the experiment with APC/C is reported as “able to bind to the APC/C directly, although consistently weaker binding was observed relative to DQ36; also recorded: consistently observed to have weaker APC/C binding activity relative to wild type DQ36”.

Turning to “biotinylated-DQ36: DQ36 containing an N-terminal biotin (Biotin-DMNKRILQYMPEPPKCSSLRQKSYIMKKRTHYSYQQ)”, the “binding to APC/C (in words)” value in the experiment on APC/C is on record as “able to pull-down purified APC/C”.

B1: biotinylated-PQ65: PQ65 containing an N-terminal biotin (peptide, UniProt P26309 169-232, looked up, fragment)
chain: Biotin-PPNASPISHLRAQTKIVFKQNVAEACGLDMNKRILQYMPEPPKCSSLRQKSYIMKKRTHYSYQQ
B1: the “binding to APC/C (in words)” value with APC/C is recorded as “able to pull-down purified APC/C”.
